One block for each binder: values may come before it.
Biological target: T1, human IL-6 (human, UniProt P05231 30-212)
T1 construct: also called interleukin-6
Experiment: SPR (Biacore T200), antibody from cell supernatant captured on Protein A, IL-6 flowed over, 37 C
Method: Those four positions were selected based on their tolerance for mutations as observed in bacterial and mammalian screens. […] These cultures were centrifuged and supernatants containing secreted antibodies were harvested and diluted in HBS-EP+ running buffer (1:20 ratio).
Antibodies were captured on a Protein A chip (GE) by injecting 1:20 cell supernatant dilutions at 10 μL/min for 60 seconds. […] The sensor chip was regenerated by a 60 seconds injection of 10 mM Glycine pH 1.7 at the flow rate of […]. […] For this setup, 1 μg/mL of purified antibody was injected over a Protein A chip at 10 μL/min for 25 seconds. […] The sensor chip was regenerated by a 60 seconds injection of 10 mM Glycine pH 1.7 at flow rate of 50 μL/min. Data analysis for supernatant and purified samples were performed using BIAevaluation software (GE). All sensorgrams were double reference subtracted and fit using a 1:1 Langmuir binding model.

T1 sequence (P05231 30-212 limits assumed): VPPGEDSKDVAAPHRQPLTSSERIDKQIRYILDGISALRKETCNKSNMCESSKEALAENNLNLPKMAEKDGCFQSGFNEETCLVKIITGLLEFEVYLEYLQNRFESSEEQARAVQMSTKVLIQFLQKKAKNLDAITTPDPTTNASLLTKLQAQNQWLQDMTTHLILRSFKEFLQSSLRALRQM

B1: anti-IL-6 antibody, heavy chain S35W, G66D / light chain WT (antibody, human IgG1, V domains shown)
VH: EVQLVESGGGLVQPGGSLRLSCAASGFTFSPFAMWWVRQAPGKGLEWVAKISPGGSWTYYSDTVTDRFTFSLDTSKSTAYLQMNSLRAEDTAVYYCARQLWGYYALDIWGQGTLVTVSS
VL: DIQLTQSPSSLSASVGDRVTITCSASISVSYMYWYQQKPGKAPKLLIYDMSNLASGVPSRFSGSGSGTDFTLTISSLQPEDFATYYCMQWSGYPYTFGQGTKVEIK
notes: Derived as m2; Engineered human IgG1
Kd: 23.5 nM
koff: 0.00217 s⁻¹
kon: 92300 M⁻¹ s⁻¹

B5: anti-IL-6 antibody, heavy chain T63D, G66D / light chain WT (antibody, human IgG1, V domains shown)
VH: EVQLVESGGGLVQPGGSLRLSCAASGFTFSPFAMSWVRQAPGKGLEWVAKISPGGSWTYYSDDVTDRFTFSLDTSKSTAYLQMNSLRAEDTAVYYCARQLWGYYALDIWGQGTLVTVSS
VL: DIQLTQSPSSLSASVGDRVTITCSASISVSYMYWYQQKPGKAPKLLIYDMSNLASGVPSRFSGSGSGTDFTLTISSLQPEDFATYYCMQWSGYPYTFGQGTKVEIK
notes: as for B1
Kd: 0.204 nM
koff: 0.000392 s⁻¹
kon: 1.92e+06 M⁻¹ s⁻¹

B6: anti-IL-6 antibody, heavy chain T63G, G66D / light chain WT (antibody, human IgG1, V domains shown)
VH: EVQLVESGGGLVQPGGSLRLSCAASGFTFSPFAMSWVRQAPGKGLEWVAKISPGGSWTYYSDGVTDRFTFSLDTSKSTAYLQMNSLRAEDTAVYYCARQLWGYYALDIWGQGTLVTVSS
VL: DIQLTQSPSSLSASVGDRVTITCSASISVSYMYWYQQKPGKAPKLLIYDMSNLASGVPSRFSGSGSGTDFTLTISSLQPEDFATYYCMQWSGYPYTFGQGTKVEIK
notes: as for B1
Kd: 0.213 nM
koff: 0.000397 s⁻¹
kon: 1.86e+06 M⁻¹ s⁻¹

B9: anti-IL-6 antibody, heavy chain S35Y, G66D / light chain WT (antibody, human IgG1, V domains shown)
VH: EVQLVESGGGLVQPGGSLRLSCAASGFTFSPFAMYWVRQAPGKGLEWVAKISPGGSWTYYSDTVTDRFTFSLDTSKSTAYLQMNSLRAEDTAVYYCARQLWGYYALDIWGQGTLVTVSS
VL: DIQLTQSPSSLSASVGDRVTITCSASISVSYMYWYQQKPGKAPKLLIYDMSNLASGVPSRFSGSGSGTDFTLTISSLQPEDFATYYCMQWSGYPYTFGQGTKVEIK
notes: as for B1
Kd: 0.503 nM
koff: 0.000551 s⁻¹
kon: 1.1e+06 M⁻¹ s⁻¹

B13: anti-IL-6 antibody, heavy chain T63F, G66D / light chain WT (antibody, human IgG1, V domains shown)
VH: EVQLVESGGGLVQPGGSLRLSCAASGFTFSPFAMSWVRQAPGKGLEWVAKISPGGSWTYYSDFVTDRFTFSLDTSKSTAYLQMNSLRAEDTAVYYCARQLWGYYALDIWGQGTLVTVSS
VL: DIQLTQSPSSLSASVGDRVTITCSASISVSYMYWYQQKPGKAPKLLIYDMSNLASGVPSRFSGSGSGTDFTLTISSLQPEDFATYYCMQWSGYPYTFGQGTKVEIK
notes: as for B1
Kd: 0.221 nM
koff: 0.000401 s⁻¹
kon: 1.81e+06 M⁻¹ s⁻¹

B14: anti-IL-6 antibody, heavy chain T63A, G66D / light chain WT (antibody, human IgG1, V domains shown)
VH: EVQLVESGGGLVQPGGSLRLSCAASGFTFSPFAMSWVRQAPGKGLEWVAKISPGGSWTYYSDAVTDRFTFSLDTSKSTAYLQMNSLRAEDTAVYYCARQLWGYYALDIWGQGTLVTVSS
VL: DIQLTQSPSSLSASVGDRVTITCSASISVSYMYWYQQKPGKAPKLLIYDMSNLASGVPSRFSGSGSGTDFTLTISSLQPEDFATYYCMQWSGYPYTFGQGTKVEIK
notes: as for B1
Kd: 0.177 nM
koff: 0.000496 s⁻¹
kon: 2.8e+06 M⁻¹ s⁻¹

Next, values leading:

Kd: 0.21 nM
koff: 0.000436 s⁻¹
kon: 2.08e+06 M⁻¹ s⁻¹
B2: anti-IL-6 antibody, heavy chain T63P, G66D / light chain WT (antibody, human IgG1, V domains shown)
VH: EVQLVESGGGLVQPGGSLRLSCAASGFTFSPFAMSWVRQAPGKGLEWVAKISPGGSWTYYSDPVTDRFTFSLDTSKSTAYLQMNSLRAEDTAVYYCARQLWGYYALDIWGQGTLVTVSS
VL: DIQLTQSPSSLSASVGDRVTITCSASISVSYMYWYQQKPGKAPKLLIYDMSNLASGVPSRFSGSGSGTDFTLTISSLQPEDFATYYCMQWSGYPYTFGQGTKVEIK
notes: as for B1

Kd: 0.251 nM
koff: 0.000427 s⁻¹
kon: 1.7e+06 M⁻¹ s⁻¹
B3: anti-IL-6 antibody, heavy chain T63W, G66D / light chain WT (antibody, human IgG1, V domains shown)
VH: EVQLVESGGGLVQPGGSLRLSCAASGFTFSPFAMSWVRQAPGKGLEWVAKISPGGSWTYYSDWVTDRFTFSLDTSKSTAYLQMNSLRAEDTAVYYCARQLWGYYALDIWGQGTLVTVSS
VL: DIQLTQSPSSLSASVGDRVTITCSASISVSYMYWYQQKPGKAPKLLIYDMSNLASGVPSRFSGSGSGTDFTLTISSLQPEDFATYYCMQWSGYPYTFGQGTKVEIK
notes: as for B1

Kd: 0.211 nM
koff: 0.000373 s⁻¹
kon: 1.77e+06 M⁻¹ s⁻¹
B4: anti-IL-6 antibody, heavy chain T63I, G66D / light chain WT (antibody, human IgG1, V domains shown)
VH: EVQLVESGGGLVQPGGSLRLSCAASGFTFSPFAMSWVRQAPGKGLEWVAKISPGGSWTYYSDIVTDRFTFSLDTSKSTAYLQMNSLRAEDTAVYYCARQLWGYYALDIWGQGTLVTVSS
VL: DIQLTQSPSSLSASVGDRVTITCSASISVSYMYWYQQKPGKAPKLLIYDMSNLASGVPSRFSGSGSGTDFTLTISSLQPEDFATYYCMQWSGYPYTFGQGTKVEIK
notes: as for B1

Kd: 0.217 nM
koff: 0.000399 s⁻¹
kon: 1.84e+06 M⁻¹ s⁻¹
B7: anti-IL-6 antibody, heavy chain T63V, G66D / light chain WT (antibody, human IgG1, V domains shown)
VH: EVQLVESGGGLVQPGGSLRLSCAASGFTFSPFAMSWVRQAPGKGLEWVAKISPGGSWTYYSDVVTDRFTFSLDTSKSTAYLQMNSLRAEDTAVYYCARQLWGYYALDIWGQGTLVTVSS
VL: DIQLTQSPSSLSASVGDRVTITCSASISVSYMYWYQQKPGKAPKLLIYDMSNLASGVPSRFSGSGSGTDFTLTISSLQPEDFATYYCMQWSGYPYTFGQGTKVEIK
notes: as for B1

Kd: 0.184 nM
koff: 0.000464 s⁻¹
kon: 2.52e+06 M⁻¹ s⁻¹
B8: anti-IL-6 antibody, heavy chain T63S, G66D / light chain WT (antibody, human IgG1, V domains shown)
VH: EVQLVESGGGLVQPGGSLRLSCAASGFTFSPFAMSWVRQAPGKGLEWVAKISPGGSWTYYSDSVTDRFTFSLDTSKSTAYLQMNSLRAEDTAVYYCARQLWGYYALDIWGQGTLVTVSS
VL: DIQLTQSPSSLSASVGDRVTITCSASISVSYMYWYQQKPGKAPKLLIYDMSNLASGVPSRFSGSGSGTDFTLTISSLQPEDFATYYCMQWSGYPYTFGQGTKVEIK
notes: as for B1

Kd: 0.21 nM
koff: 0.000363 s⁻¹
kon: 1.73e+06 M⁻¹ s⁻¹
B10: anti-IL-6 antibody, heavy chain T63L, G66D / light chain WT (antibody, human IgG1, V domains shown)
VH: EVQLVESGGGLVQPGGSLRLSCAASGFTFSPFAMSWVRQAPGKGLEWVAKISPGGSWTYYSDLVTDRFTFSLDTSKSTAYLQMNSLRAEDTAVYYCARQLWGYYALDIWGQGTLVTVSS
VL: DIQLTQSPSSLSASVGDRVTITCSASISVSYMYWYQQKPGKAPKLLIYDMSNLASGVPSRFSGSGSGTDFTLTISSLQPEDFATYYCMQWSGYPYTFGQGTKVEIK
notes: as for B1

Kd: 0.173 nM
koff: 0.00046 s⁻¹
kon: 2.66e+06 M⁻¹ s⁻¹
B11: anti-IL-6 antibody, heavy chain T63R, G66D / light chain WT (antibody, human IgG1, V domains shown)
VH: EVQLVESGGGLVQPGGSLRLSCAASGFTFSPFAMSWVRQAPGKGLEWVAKISPGGSWTYYSDRVTDRFTFSLDTSKSTAYLQMNSLRAEDTAVYYCARQLWGYYALDIWGQGTLVTVSS
VL: DIQLTQSPSSLSASVGDRVTITCSASISVSYMYWYQQKPGKAPKLLIYDMSNLASGVPSRFSGSGSGTDFTLTISSLQPEDFATYYCMQWSGYPYTFGQGTKVEIK
notes: as for B1

Kd: 0.213 nM
koff: 0.00042 s⁻¹
kon: 1.98e+06 M⁻¹ s⁻¹
B12: anti-IL-6 antibody, heavy chain T63H, G66D / light chain WT (antibody, human IgG1, V domains shown)
VH: EVQLVESGGGLVQPGGSLRLSCAASGFTFSPFAMSWVRQAPGKGLEWVAKISPGGSWTYYSDHVTDRFTFSLDTSKSTAYLQMNSLRAEDTAVYYCARQLWGYYALDIWGQGTLVTVSS
VL: DIQLTQSPSSLSASVGDRVTITCSASISVSYMYWYQQKPGKAPKLLIYDMSNLASGVPSRFSGSGSGTDFTLTISSLQPEDFATYYCMQWSGYPYTFGQGTKVEIK
notes: as for B1

— patent US20240368267A1 (KODIAK SCIENCES, published 2024)
